Data as given in patent publication US20250018040A1 (UNITED STATES OF AMERICA AS REPRESENTED BY THE SECRETARY …, published 2025).

Key:
shed mesothelin = target: T1, shed mesothelin (UniProt Q13421 296-585, limits assumed); experiment: Western blot of OVCAR-8 growth medium
T1 construct: also called Shed MSLN; mesothelin shed by OVCAR-8 cells
Description: (§1) A Western blot assay was carried out to test the ability of mAb 15B6 or control mAb MN to bind to full length Fc-mesothelin and shed mesothelin, which had been shed by OVCAR-8 cells. Equal amounts of OVCAR-8 cell growth media were collected. The proteins were resolved by SDS gel electrophoresis. The bands were detected by Western blot using the antibodies MN and/or 15B6. Full length mesothelin attached to an Fc protein was used as positive control and reacts with both antibodies.

[1] = target: T2, full length Fc-mesothelin (UniProt Q13421 296-598, limits assumed); experiment: Western blot
T2 construct: it is written here as in the name; also called Fc-MSLN; full length mesothelin attached to an Fc protein; not shown: Fc protein
T2 sequence (Q13421 other isoform, or with tags, fused parts or gaps limits assumed): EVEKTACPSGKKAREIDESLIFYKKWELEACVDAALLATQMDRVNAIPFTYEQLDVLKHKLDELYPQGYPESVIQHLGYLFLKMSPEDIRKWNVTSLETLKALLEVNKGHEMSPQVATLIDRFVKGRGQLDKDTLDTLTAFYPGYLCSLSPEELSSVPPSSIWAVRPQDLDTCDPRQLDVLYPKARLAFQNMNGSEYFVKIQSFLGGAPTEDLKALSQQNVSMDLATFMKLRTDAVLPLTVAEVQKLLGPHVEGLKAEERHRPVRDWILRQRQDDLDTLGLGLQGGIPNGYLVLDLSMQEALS
Description: as §1

[2] = target: T2, full length Fc-mesothelin; experiment: flow cytometry: Fc-mesothelin bound to 293T cells transfected with the CAR vector, detected with fluorescent anti-Fc antibody (column: Expressed by 293T cells?)
Description: 293T cells were independently transduced with the CAR-T vectors. Expression of each Fv by the 293T cells was tested. The CAR-T vectors were transfected into 293T cells. After two days of culture, Fc-mesothelin was bound to the cells. The bound Fc protein was detected by a secondary anti-Fc-antibody conjugated to a fluorescent dye using flow cytometry.

T1 sequence (Q13421 other isoform, or with tags, fused parts or gaps limits assumed): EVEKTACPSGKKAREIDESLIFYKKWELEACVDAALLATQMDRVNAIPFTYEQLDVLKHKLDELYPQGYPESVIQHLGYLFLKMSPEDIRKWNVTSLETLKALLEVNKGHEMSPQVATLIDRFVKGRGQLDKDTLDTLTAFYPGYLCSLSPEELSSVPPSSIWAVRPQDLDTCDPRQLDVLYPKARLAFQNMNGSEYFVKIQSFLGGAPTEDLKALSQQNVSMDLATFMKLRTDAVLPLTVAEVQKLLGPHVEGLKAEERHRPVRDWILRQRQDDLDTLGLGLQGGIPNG

binding result (shed mesothelin) | binding result [1] | binding result [2] | Binder
no binding | binds | – | mAb 15B6 (antibody, mouse IgG2b, V domains shown, Murine IgG2b; For flow cytometry it was conjugated to ALEXA FLUOR 647; also called monoclonal antibody 15B6; 15B6 (IgG2b)) VH: EVQLQQSGPVLVKPGASVKISCKASGYSFTGYYMHWVRQSLVKRLEWIGRINPYTGVPSYKHNFKDKASLTVDKSSSTAYMELHSLTSEDSAVYYCARELGGYWGQGTTLTVSS VL: QAVVTQESALTTSPGETVTLTCRSSTGAVTTGNYPNWVQEKPDHLFTGLIAGTNNRAPGVPARFSGSLIGDKAALTITGAQTEDEAIYFCALWFSSHWVFGGGTKLTVL
– | – | binds | CAR Construct No. 2, 15B6 scFv (Vh-lin-Vl) (other, Chimeric antigen receptor on 293T cells or T cells) MEVQLQQSGPVLVKPGASVKISCKASGYSFTGYYMHWVRQSLVKRLEWIGRINPYTGVPSYKHNFKDKASLTVDKSSSTAYMELHSLTSEDSAVYYCARELGGYWGQGTTLTVSSGGGGSGGGGSGGGGSQAVVTQESALTTSPGETVTLTCRSSTGAVTTGNYPNWVQEKPDHLFTGLIAGTNNRAPGVPARFSGSLIGDKAALTITGAQTEDEAIYFCALWFSSHWVFGGGTKLTVLTSTTTPAPRPPTPAPTIASQPLSLRPEACRPAAGGAVHTRGLDFACDIYIWAPLAGTCGVLLLSLVITKRGRKKLLYIFKQPFMRPVQTTQEEDGCSCRFPEEEEGGCELRVKFSRSADAPAYQQGQNQLYNELNLGRREEYDVLDKRRGRDPEMGGKPRRKNPQEGLYNELQKDKMAEAYSEIGMKGERRRGKGHDGLYQGLSTATKDTYDALHMQALPPR
